Here are results for 20 sequences from the Immune Epitope Database (IEDB).

For this assay, the target named is HLA-A*02:01. Nature of the assay: IEDB peptide-MHC binding, purified MHC/competitive/radioactivity; filed as Kd, often an IC50 or EC50 that approximates it; ≥ and ≤ were set here for values at or beyond the usual limits of such assays. To be noted: source organism: Trypanosoma cruzi.
For FLLLGLWGFA, the Kd amounted to 207 nM.
Then FLYNRPLSV, with 146 nM; and FVDYNFTIV, with 240 nM; and FVNHDFTVV, with 300 nM.
Under GIRPYEILA stands 33 nM.
Under IAGGVMAVV stands 196 nM.
Take IVMGNGTLV: the Kd was 998 nM.
Then KLFPEVIDL, with 203 nM.
Then LLGLWGLTGL, with 1.3 nM.
Take LLLGLWGFAA: the Kd was found to be 534 nM.
Then LLLLGLWGL, with 22 nM; and LLPSLFLLL, with 125 nM.
Regarding LLYSDDALHL, the Kd is 317 nM.
Then MLQDGNKGSV, with 840 nM; and PLLLLGLWGL, with 643 nM.
Regarding SVYVDAKLV, the Kd was 102 nM.
In the case of VLAKDGTEV, the Kd amounted to 67 nM.
Consider VLLPSLFLL, for which the Kd amounted to 36 nM.
Under VLLPSLFLLL stands 99 nM; under WVFPESISPV, 109 nM.
